The target of one data set is T1, human beta-Klotho (Homo sapiens, UniProt Q86Z14).
T1 sequence (Q86Z14 1-1044): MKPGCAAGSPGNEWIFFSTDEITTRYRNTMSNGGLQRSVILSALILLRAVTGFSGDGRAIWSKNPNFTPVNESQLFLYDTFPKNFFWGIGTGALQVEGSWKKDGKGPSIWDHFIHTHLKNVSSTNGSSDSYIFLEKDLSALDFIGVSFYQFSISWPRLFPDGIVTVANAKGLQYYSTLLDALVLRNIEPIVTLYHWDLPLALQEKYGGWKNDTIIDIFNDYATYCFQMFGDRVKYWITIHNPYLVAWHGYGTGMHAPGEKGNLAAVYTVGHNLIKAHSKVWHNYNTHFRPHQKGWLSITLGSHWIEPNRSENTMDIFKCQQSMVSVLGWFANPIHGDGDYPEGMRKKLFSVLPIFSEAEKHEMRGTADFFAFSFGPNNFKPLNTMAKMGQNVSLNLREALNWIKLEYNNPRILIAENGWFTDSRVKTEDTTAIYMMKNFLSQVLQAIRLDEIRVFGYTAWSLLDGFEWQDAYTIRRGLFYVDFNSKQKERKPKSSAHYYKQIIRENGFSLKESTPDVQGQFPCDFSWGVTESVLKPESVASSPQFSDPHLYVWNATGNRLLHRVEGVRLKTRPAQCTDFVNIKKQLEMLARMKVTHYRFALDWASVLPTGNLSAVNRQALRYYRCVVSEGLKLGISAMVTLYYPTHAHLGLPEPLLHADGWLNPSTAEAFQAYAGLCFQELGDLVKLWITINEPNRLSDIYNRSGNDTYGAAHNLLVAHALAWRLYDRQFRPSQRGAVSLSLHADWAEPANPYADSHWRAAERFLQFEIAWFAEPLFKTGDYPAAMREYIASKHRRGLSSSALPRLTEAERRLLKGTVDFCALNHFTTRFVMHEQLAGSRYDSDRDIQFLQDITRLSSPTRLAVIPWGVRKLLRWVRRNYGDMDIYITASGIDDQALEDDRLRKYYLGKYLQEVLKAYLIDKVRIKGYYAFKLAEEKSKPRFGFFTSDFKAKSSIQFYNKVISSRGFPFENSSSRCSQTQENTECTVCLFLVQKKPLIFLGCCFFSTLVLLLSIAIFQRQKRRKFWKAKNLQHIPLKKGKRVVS
Briefly: SPR binding affinity and kinetics to human beta-Klotho (Biacore 8K, anti-human Fc capture). How it is done:
Binding affinity and kinetics were measured on a Biacore 8K instrument (GE Healthcare). For the affinity capture of the diluted mAb sample, an anti-human Fc antibody (human antibody capture kit, GE Healthcare) was immobilized on all eight channels of a series S CM5 sensor chip (GE Healthcare) to approximately 10.000 RU. The anti-beta-Klotho antibodies were diluted into HBS-EP+ assay buffer (GE Healthcare) to 0.04 μg/mL. The antibodies were injected in the sample compartment, whereas the reference compartment was used without captured antibody. […] For the antigen inject the flow rate was adjusted to 60 μL/min with an association time of 180 sec and a dissociation time of 1800 sec. The maximum binding signal of beta-Klotho was in the range of 30 RU. At the end of each cycle an inject of regeneration solution, supplied with human antibody capture kit (GE Healthcare), supplemented with 10% non-specific binding reducer (GE Healthcare), for 1 min at 30 μL/min to remove antibody and antigen was performed. Binding kinetics data were evaluated with a 1:1 binding model using the Biacore 8K Evaluation Software version 1.1.1.7442 (GE Healthcare).
For interaction analysis with human beta-klotho, mAbs were captured via an anti-human Fc antibody immobilized on a series S CM5 sensor chip (human antibody capture kit, GE Healthcare). […] Binding kinetics data were evaluated with a 1:1 binding model using the Biacore 8K Evaluation Software version 1.1.1.7442 (GE Healthcare). For interaction analysis with Cynomolgus monkey beta-klotho, mAbs were captured via an anti-human Fc antibody immobilized on a series S CM5 sensor chip (human antibody capture kit, GE Healthcare). […] Binding kinetics data were evaluated with a 1:1 binding model using the Biacore 8K Evaluation Software version 1.1.1.7442 (GE Healthcare). Exemplary sensorgrams for the interaction are shown in FIG. 7 (human KLB) and 8 (monkey KLB), as well as in Table G.

Data set [1] is described as follows: Intact mass spectrometry (IMS). Type of data set: physicochemical. As to conditions: for intact mass Identity confirmed / intact mass Peak intensity post stress: 21 days. As for the experimental part: Protein integrity was analyzed by LC-MS. […] Reversed phase (RP) chromatography was done using a PLRP-S 1000A 5 μm, 50×2.1 mm (Agilent) with a guard column PLRP-S 300A 5 μm, 3×5 mm (Agilent) at 200 μL/min and 80° C. column temperature. Eluents were buffer A containing LC water and 0.1% formic acid as well as buffer B containing 90% acetonitrile, 10% LC water and 0.1% formic acid. 1 μg of protein was injected onto the column and eluted using linear gradient from 0 to 17 minutes with increasing acetonitrile concentration. Data was analyzed using MassHunter Bioconfirm B.06 (Agilent). Molecular masses were calculated based on the amino acid sequences of the proteins using GPMAW software version 10 (Lighthouse data).

Data set [2] in a line: Capillary gel electrophoresis (cGE). Type of data set: physicochemical. As for the experimental part: Capillary Gel Electrophoresis (cGE) Purity and size heterogeneity of the samples was determined by capillary gel electrophoresis (cGE) using a CES18000 instrument (SCIEX) equipped with a pre-assembled fused silica capillary (50 μm×300 mm, SCIEX). Protein samples at 1 mg/ml were prepared using the IgG purity heterogeneity Kit (SCIEX) under non-reducing conditions according to the manufacturer's specifications. Samples were electrophoretically separated for 35 minutes at 25° C. and the absorbance at 220 nm was recorded by a photo diode array (PDA) detector. The data were analyzed using 32 Karat Software (SCIEX).

Data set [3] in a line: Size-exclusion chromatography (SEC). It is filed as physicochemical. How it is done: Analytical SEC was performed using a BioSECcurity instrument (PSS Polymer) with an AdvanceBio 300 column (4.6 mm×300 mm) and AdvanceBio 300 guard column (Agilent Technologies) at room temperature. The analysis was run at a flow rate of 0.5 mL/min using 2× concentrated D-PBS buffer (Thermo Fisher Scientific) with detection at 280 nm. 10 μL of protein sample (at 1 mg/mL) were applied onto the column. Data evaluation was performed using WinGPC software v8.1 (PSS Polymer). For estimation of the molecular weight, the SEC column was calibrated with the AdvanceBio SEC 300 Å Protein Standard (Agilent Technologies).

[4] abbreviates: SPR, 1:1 binding model, read-out: KD human KLB.

Like-named read-outs stand apart in the source and are kept apart here.

In the case of “Ab0430: IgG1 NNAS; 16H7 VL (N25S, D49E, D50E, D91E, N93E); 16H7 VH (M34V, I83T, D109E); HC SEQ ID NO: 43, LC SEQ ID NO: 50”, the equilibrium dissociation constant (Kd) was determined as 0.286 nM with human beta-Klotho (setting [4]) and 0.29 nM in the data set with human beta-Klotho (read-out: Affinity SPR KD). For the same substance, the “Identity, correct pairing, intact mass, Identity confirmed” value in data set [1] is “Yes”. Moreover, the “intact mass Identity confirmed” value in data set [1] (pH 5, 40° C.) was “Yes”; in data set [1] (pH 6, 40° C.), “Yes”; in data set [1] (pH 8, 40° C.), “Yes”. Also, the “intact mass Peak intensity post stress” value in data set [1] (pH 5, 40° C.) was determined as 80%; in data set [1] (pH 6, 40° C.) it was 81%; in data set [1] (pH 8, 40° C.) it was 54%. For the same substance, in data set [2], the “Homogeneity cGE % Monomer” value is 62%. The “SEC % HMW” value was 1% in data set [3] (pH 5, 40° C., d 21); 1% in data set [3] (pH 5, d 0); 0% in data set [3] (pH 6, 40° C., d 21); 1% in data set [3] (pH 6, d 0); 1% in data set [3] (pH 8, 40° C., d 21); 2% in data set [3] (pH 8, d 0). Besides, the “SEC % LMW” value stood at 2% in data set [3] (pH 5, 40° C., d 21); 0% in data set [3] (pH 5, d 0); 2% in data set [3] (pH 6, 40° C., d 21); 0% in data set [3] (pH 6, d 0); 4% in data set [3] (pH 8, 40° C., d 21); 0% in data set [3] (pH 8, d 0).

Take “Ab0335: IgG4 PE; 16H7 VL (N25S, D49S, D50A, D91E, N93E); 16H7 VH (M34V, I83T, D109E); HC SEQ ID NO: 39, LC SEQ ID NO: 46”: the “affinity to human KLB compared to 16H7” value with human beta-Klotho is recorded as “comparable affinity”. Further, the Kd with human beta-Klotho (setting [4]) came out at 0.158 nM; in the data set with human beta-Klotho (read-out: Affinity SPR KD), 0.16 nM. Besides, in data set [1], the “Identity, correct pairing, intact mass, Identity confirmed” value was “Yes”. Also, the “intact mass Identity confirmed” value in data set [1] (pH 5, 40° C.) is listed as “Yes”; in data set [1] (pH 6, 40° C.), “Yes”; in data set [1] (pH 8, 40° C.) it was “Yes”. For the same substance, the “intact mass Peak intensity post stress” value turned out to be 84% in data set [1] (pH 5, 40° C.); 85% in data set [1] (pH 6, 40° C.); 53% in data set [1] (pH 8, 40° C.). Besides, the “Homogeneity cGE % Monomer” value in data set [2] is listed as 79%. The “SEC % HMW” value stood at 0% in data set [3] (pH 5, 40° C., d 21); 1% in data set [3] (pH 5, d 0); 0% in data set [3] (pH 6, 40° C., d 21); 1% in data set [3] (pH 6, d 0); 5% in data set [3] (pH 8, 40° C., d 21); 2% in data set [3] (pH 8, d 0). Moreover, the “SEC % LMW” value stood at 0% in data set [3] (pH 5, 40° C., d 21); 0% in data set [3] (pH 5, d 0); 0% in data set [3] (pH 6, 40° C., d 21); 0% in data set [3] (pH 6, d 0); 1% in data set [3] (pH 8, 40° C., d 21); 0% in data set [3] (pH 8, d 0).

These data come from patent US20250115669A1, “FGFR1/KLB Targeting Agonistic Antigen-Binding Proteins and Conjugates Thereof with GLP-1R Agonistic Peptides” (SANOFI, priority 2020, published 2025).
